Laboratory results reported in patent US20220136009, “COMPOSITIONS AND METHODS FOR SELECTIVE GENE REGULATION” (Encoded Therapeutics, Inc., published 2022).

Assays:
Conditions in all cases: tags: NLS, HA tag
[1] = target: Construct 4 eTF (eZF z1-VP64) (synthetic construct); assay: cell_activity; endogenous SCN1A mRNA in HEK293 vs EGFP-KASH; p=0.0097; also about 20-30% Scn1a upregulation in mouse hippocampus
Protocol: (§1) HEK293 cells were cultured per standard methods, and transfected (FugeneHD, Promega) with 3 ug plasmid carrying an engineered transcription factor or control construct per well of a 6-well plate. 48h following transfection, cells were collected and RNA was isolated (Qiagen RNeasy Mini kit), and DNase treated. RNA (3 ug) was reverse transcribed using OligoDT primers (Superscript IV, Invitrogen). cDNA samples were analyzed by qPCR using Phusion Polymerase (New England Biolabs) and SYBR Green I: (30s at 98° C., 40×[10 sec at 98° C., 15 sec at 66° C., 15 sec at 72° C.]). Primers against SCN1A (5′-[…]-3′ (SEQ ID NO: 185); 5′-[…]-3′ (SEQ ID NO: 186)) were used to quantify levels of endogenous SCN1A transcript, and relative levels of SCN1A expression were determined by the delta-delta Ct method with GAPDH as a reference gene (5′-[…]′-3′ (SEQ ID NO: 187); 5′-[…]-3′ (SEQ ID NO: 188)). Data are presented as fold changes relative to the control condition.

[2] = target: Construct 3 eTF (eZF z13-VP64) (synthetic construct); assay: cell_activity; endogenous SCN1A mRNA in HEK293 vs EGFP-KASH; p=0.149
Protocol: as §1

[3] = target: Construct 30 eTF (eZF z13-VPR) (synthetic construct); assay: cell_activity; SCN1A mRNA by RNAseq in iCell GABA neurons vs CBA-EGFP; SCN1A-selective among 40 neighbouring genes
Sequence of Construct 30 eTF (eZF z13-VPR) (synthetic construct) (chain, as listed by the source): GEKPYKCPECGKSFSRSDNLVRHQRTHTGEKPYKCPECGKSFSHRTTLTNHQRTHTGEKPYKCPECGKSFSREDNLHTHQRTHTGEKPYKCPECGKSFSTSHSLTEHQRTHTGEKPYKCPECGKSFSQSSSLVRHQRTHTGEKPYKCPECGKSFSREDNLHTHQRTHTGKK
Protocol: iCell GABA neurons (Cellular Dynamics) were plated in a 6-well plate (˜1E6 cells/well) and maintained per manufacturer's recommended protocol. 72h following plating, recombinant AAV (serotype AAV-DJ) expressing EGFP or activator (Construct 30), which comprises a zinc finger DBD fused to a VPR TAD driven by a CBA promoter) under the control of a CBA promoter was added to the culture media at approximately 2E11 genome copies/well.
One week following infection, RNA was isolated from cultured cells (Qiagen RNeasy Mini kit), and DNase treated. RNAseq libraries were prepared from the recovered RNA, using the TruSeq Stranded mRNA library kit (Illumina) and sequenced on an Illumina NextSeq (2×75 cycle paired end sequencing). Sequencing reads were aligned to human genome (RNASTAR) and differential expression analysis was performed with DESeq2. Data are presented as fold change with respect to control (AAVDJ-CBA-EGFP) samples (see FIG. 4). Results are shown in TABLE 14 and FIG. 4 illustrates the relative expression of endogenous SCN1A and the 40 nearest neighboring gene transcripts presented as fold changes relative to the control condition. Construct 30, as described in TABLE 1, was able to specifically increase expression of the SCN1A gene, or the Nav1.1 protein, as compared to the other genes examined. […]

[4] = target: Construct 29 eTF (eZF z14-VP64) (synthetic construct); assay: cell_activity; endogenous SCN1A mRNA in HEK293 vs EGFP-KASH; p=0.164
Protocol: as §1

B1: z1 target site (dsDNA)
DNA 1: CTAGGTCAAGTGTAGGAG
DNA 2: CTCCTACACTTGACCTAG
activity [1]: 5.12 fold

B2: z13 target site (dsDNA)
DNA 1: TAGGTACCATAGAGTGAG
DNA 2: CTCACTCTATGGTACCTA
activity [2]: 25.5 fold
activity [3]: 63 fold

B3: z14 target site (dsDNA)
DNA 1: GAGGATACTGCAGAGGTC
DNA 2: GACCTCTGCAGTATCCTC
activity [4]: 8.68 fold
